Experimental data: PMC3982596

Molecular target: YFP-LacI-HP1α (human) (UniProt P45973)
UniProt P45973, sequence (P45973 whole entry): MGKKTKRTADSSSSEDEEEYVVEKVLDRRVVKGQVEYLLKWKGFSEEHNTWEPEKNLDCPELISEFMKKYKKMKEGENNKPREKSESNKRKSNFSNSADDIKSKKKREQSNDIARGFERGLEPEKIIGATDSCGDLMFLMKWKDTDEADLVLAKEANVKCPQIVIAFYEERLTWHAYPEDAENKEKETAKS

Substance “CFP-NDR1 (from UniProt Q15208 1-465) (enzyme)” has a percent of cells with the binder at the tethered locus (% of the cells) of 18.
